According to PMC10940318, “Targeted intracellular delivery of dimeric STINGa by two pHLIP peptides for treatment of solid tumors” (Frontiers in Pharmacology, 2024):

Legend:
[1] = Blood clearance (PK) by whole blood fluorescence imaging; type: in vivo, Balb/c mice
Method: For biodistribution studies 5 × 10^4 of CT26 cancer cells were injected SQ in 100 µL of growth medium into the right flank of female Balb/c mice and tumors were grown until they reached 150–250 mm^3 in volume. Then a single retro-orbital (RO) injection of 50 μM 100 μL of 2(ICG-pHLIP)-dMSA was performed. Animals were euthanized at 5 min, 1, 4, 24, 48, 72, and 120 h post-injection, blood was collected in K2 EDTA vacutainer blood collection tubes (BD), and necropsy was performed immediately after animals were euthanized. Blood, tumors and major organs (kidney, liver, spleen, pancreas, lung, heart, large and small intestines, bone, muscle, brain) were collected, and imaged ex vivo immediately after necropsy. Blood (200 µL) was imaged in 96-well plates with black bottom and walls.
The in vivo and ex vivo bright field and near-infrared fluorescent imaging employed a Stryker 1588 AIM endoscopic system with L10 AIM Light Source (808 nm excitation and collection of light in the range of approximately of 815–850 nm), and a 1588 AIM Camera using a 10 mm scope. The lens was kept at a fixed distance from the surface of the organs, within an enclosed (light-protected) area. Calibration curves converting laser and gain settings were established by imaging of pHLIP-ICG solution at different concentrations. The ex vivo fluorescence imaging of tissue specimens was performed using three different laser settings and six different gain settings. The digital fluorescence images were split into RGB channels, with the green channel being analyzed using ImageJ program to calculate the average fluorescence intensity. All average intensities were adjusted based on their capture settings and using calibration curves to present fluorescence intensities corresponding to the unified (the same) settings.

CT26 cancer cells = experiment: Re-challenge of tumor-free mice with CT26 cancer cells; type: in vivo, Balb/c mice; conditions: 11 survivors of both dose groups, contralateral flank, kept 40 more days
Text: In the 2pHLIP-dMSA treated groups the mice that stayed tumor-free were re-challenged with tumor cells injected into the tumor-free flank on day 65 after the first injection of 2pHLIP-dMSA. Tumor-free mice were kept for an additional 40 days (total of 105 days after the treatment with 2pHLIP-dMSA) and then were euthanized.

[2] = Stability in mouse plasma; conditions: BALB/c mouse plasma, 200 µM, 0-24 h at 37°C, methanol precipitation, HPLC C18, UV 220/280/325 nm
Method: Plasma proteins were precipitated by methanol (1:5 volume ratio of plasma to methanol) and centrifuged for 10 min at […]. The supernatant was collected and analyzed by HPLC using a Zorbax SB-C18 4.6 × 250 mm, 5 μm column with a gradient from 20% to 80% acetonitrile in water containing 0.05% TFA. Chromatograms were recorded at 220 nm, 280 nm and 325 nm.

For “ADQDNPWRAYLDLLFPTDTLLLDLLWCG [2pHLIP-dMSA]”, the “circulation in the blood” value ([1]; mice, stated in discussion) was 1 to 2 days, the blood clearance half-life ([1]; single RO injection of 2(ICG-pHLIP)-dMSA 50 µM 100 µL, CT26 tumor-bearing female Balb/c mice, whole blood fluorescence, exponential fit) was over 30 h and the “tumor development after re-injection of cancer cells on day 65” value (CT26 cancer cells) was “none of them developed tumors”. The “stability in mouse plasma (in words)” value [2] was “low”.
